{
  "source": "the DeepSol protein solubility set",
  "data": [
    {"assay": "soluble on expression in E. coli; label from the status in PepcDB or PDB records", "values": [
      {"sequence": "MSLKKKTTLSEEDQALFRQLMAGTRKIKQDTIVHRPQRKKISEVPVKRLIQEQADASHYFSDEFQPLLNTEGPVKYVRPDVSHFEAKKLRRGDYSPELFLDLHGLTQLQAKQELGALIAACRREHVFCACVMHGHGKHILKQQTPLWLAQHPHVMAFHQAPKEYGGDAALLVLIEVEEWLPPEGHHHHHH", "soluble on expression in E. coli": "soluble"},
      {"sequence": "MSLKKTEKAYEVKRAFNNNIVLVDDDEKEIILFAKGIGFNCKKGSIIPENTNIEKIFTIQDENNIANFRRVVGSNDEKFIAFCEELILEISRDFSEELNEIIHIGLIDHISFAIERMKKGEILRNPFLVEIETLYPKEFEAATKMVKKLEDFTGVSIVDDEIGFIAMHIHSARTTGKISHTIKFTYIANTAVEYIEDAFNIEVDRTSLSYARFISHLRFAIERLINNTPVKNELLSIIKLKYPESFKVAEEIGKAINEDFSLEVAEDEIGYLALHVERIRKNEGHHHHHH", "soluble on expression in E. coli": "soluble"},
      {"sequence": "MSLKLYYQQAMLLPKTKEILLRWEGVLSAGQRKASNAVVINLKGKMDMLLWAVAGSGKTEMMFEGMDWALRQGFRICVASPRVDVCLELLPRLKEAFPSMDIVCLYGDSKDNYQGEQFVIATTHQLIRFYETFQVIFIDEVDAFPYAKDPFLEYAVMKARTKEGSTIIITATPEKKWQEECVKGKRNFVKIPGRYHREGHHHHHH", "soluble on expression in E. coli": "soluble"},
      {"sequence": "MSLKMETGKLLMELSNLDGPSGYETNVVSYIKSVIEPFVDEAKTTRHGSLIGYKKGKGIGKLAFFAHVDEIGFVVSKVEGQFARLEPVGGVDPKVVYASKVRIYTKNGIERGVIGMLAPHLQDSESRKKVPTYDEIFVDLSLCERGVRVGDIAVIDQTAFETNGKVVGKALDNRASCGVLVKVLEFLKRYDHPWDVYVVFSVQEETGCLGALTGAYEINPDAAIVMDVTFASEPPFSDHIELGKGPVIGLGPVVDRNLVQKIIEIAKKHNVSLQEEAVGGRSGTETDFVQLVRNGVRTSLISIPLKYMHTPVEMVDPRDVEELARLLSLVAVELEVEGGSHHHHHH", "soluble on expression in E. coli": "soluble"},
      {"sequence": "MSLKMQEPIEDPLSKLTQYSGKTFVIKYGGSIMKNKKAEEAFIKDVKYLRKLGINIVIVHGGGPEISRWLELSGIESRFVDGLRVTDEKVIEIVQMVLSGKINKKLSLQFNIDGVNAVGLSGVDNKLIEATKKYVYKGNETIDIGYVGKVTKVNSEFIKELLKGGQVPVIAPIGCDNKGNVYNINADYAAAFISSALDAEKLIILTDVEGVYRNINDPQSIIHEIDIKDVNYYIKEEIIKGGMIPKVQCCASAIENGTKNVQLIDGRNDHCLINDILNYRGTIISYRSGVKCQKAIEGHHHHHH", "soluble on expression in E. coli": "soluble"},
      {"sequence": "MSLKNLTIKENQPAIYITNLGKYTEGEHMGQWLNVPATKEQFNVVLKNIGVDGVQYEEYFLTDWENIGGISQFSNIERVNNMAKIQIAINEKLYNFFGADQEITYFNDDKYKVMEILNDYAKEQADELTTDEIIENIESMRIFAQDQYNSCIVNFANYLIDELEFINFKAIEKIDQKVVNYFDFEKFGHDKLIELNANSDVIIGTYEVGKLNDTIIIVTLFEGHHHHHH", "soluble on expression in E. coli": "soluble"},
      {"sequence": "MSLKPEKPSDTELVFISNAETIRDYLLRLSVDELKLLAKYILQNVYIVFVQTDDFASSFRLFNVLNSRGLPLSNADLLKNALFESASTHNKKSEQIESAWSQIEDMVGVRRLDKFLTLHKLSEKKDRDRVLQKGFEAFIENLQQQFDGDAIAMSLMLVNSAKNYTKILENDFEHPSIRRKIASLSNLGVDEWIPPVMAFMNRMARTEDFNLDDFSQFITAFEKVYMHGWLKKQIKSQREMVCYSALVAINNDMPFDSVINQINQHADNSGFIAALDEDLYEPRPNQVNLIKAILLRLDMEQQDESVIKTYTGRITIEHILPQALVNEYWINRFQPQEHVYWLHKIGNLTLISGSKNSEAQHYDFIKKKSIYEKLNSKSSFDLTKDVCNSSEWGLAELKMRHEKMKTQLKKLWLVEGHHHHHH", "soluble on expression in E. coli": "not soluble"},
      {"sequence": "MSLKPGTLISMMTEEEANSITHLTLTGKLNAEDFRHLRDEFPSLKVLDISNAEIKMYSGKAGTYPNGKFYIYMANFVPAYAFSNVVNGVTKGKQTLEKVILSEKIKNIEDAAFKGCDNLKICQIRKKTAPNLLPEALADSVTAIFIPLGSSDAYRFKNRWEHFAFIEGEPLETTIQVGAMGKLEDEIMKAGLQPRDINFLTIEGKLDNADFKLIRDYMPNLVSLDISKTNATTIPDFTFAQKKYLLKIKLPHNLKTIGQRVFSNCGRLAGTLELPASVTAIEFGAFMGCDNLRYVLATGDKITTLGDELFGNGVPSKLIYKEGHHHHHH", "soluble on expression in E. coli": "not soluble"},
      {"sequence": "MSLKPKYKQIIDDIISQIDSGDLEQGMQLPSQRDMASLYQVNRSTVIQALDILKSQGIIEGREKQRLYVSGNTWHTYIKNNINWQNYISHSTTKNNQYFVQQINKLEFHTNMIRLGTGELAPDLIPNEQFKEILSKCHTPVLNTNYEPPQGNLKLREAVAQYMQKSGVSCTVDHICITSGALQGLKLIADGLLIPQSKIIVESPSYINSIRTWHNMRADIQQISISDIKSNINNIFKAQSQYTNSIFYCIPTLHNPTQHSYSTEEKQKIIMQCEQHGIPIVEDNVYGDLYFNHERPKPLKSFDTNDNILYLNSLSKTVSPGLRVGWIVAKPSVAAHLADLKMQNDYGASSISQYIATQWLTHPQYHDQHLKMLKNQLLIKRNLFLESLKKYFSDFGSWSTPEGSFYIWFQFKFSIDMKRLFDEAIAENILINPGEVYDKDARDCIRFSYAYVDAEDIDETLKHLSKIIQTRFTPPSSHIGKGNEGHHHHHH", "soluble on expression in E. coli": "not soluble"},
      {"sequence": "MSLKPSVVLNGDAITLGDIWENIGDKAGTPLANAPAPGKRITLETRWLMAVAQSYGIDWRPASPFERSVVERAGQSVDIRAIETELKEALSMEGAPAGASIEISNRQQLHIVIPATASPTVAVKDLAYDPRMNRFQAVVEAPAGAPNSVRFKVMGSVYASARIPVLAHAMGRGDVIREDDIQWVDVREEVVRRDIISNARMLVGQEPRYQLRAGVPVRTNEVQKPVVVAKNSSVTIMLRSKFMTLTAQGRAIEDGSVGDVIRVTNVQSKQTVDAKIEGPGQVSVMPGGLRTLANEGHHHHHH", "soluble on expression in E. coli": "not soluble"},
      {"sequence": "MSLKRFVAEKMDNQDHWDLNIAPLTNKHIAIVGAGPAGAQAAIELRRQGHEVTIYEKLDVYGGMMRVGIPEYRLPRDVIDFEYSYLAMLGIKTQFGVEIGKDISFDTLRSEHDAVILAHGAHVGSIIPLPGHDNDGVFSAVEYLKEISETRQFPRACKRVMVIGGGDVAMDCARSSWRIGASDVYQCSLESLESLPASQIEIDESLEEGVEFNAGWGPVAIEHENGKVTGITIKKVLSIFDEQGNFAPQYSEESKTISVDTVVFATGQIVADITDGALEQTRGGRYVVDKQTLASSLEDVFVAGDACGGNIVIEAMALGRKAAMSVERFLTARPLTEDRDFEQEYSYSSRLDVPLPKGTVDTPRLHGELRDAEERKQDFAQVDLGFTEEQIKQEASRCLQCSCKLCMTECIMMNDFSDCPKTIFSDFVNNKSMDPLLAYSCNACDQCTIVCPKDFPMKEMFLGARTDFVKANNGESPMPGHKAINMHQKLGFSKIFTMAKRAVSTKEGHHHHHH", "soluble on expression in E. coli": "soluble"},
      {"sequence": "MSLKRILLSSDRSGSGKTLITSAIMRALSKKYKVRGFKAGPDFIDPGYHKIATGFPSINLDLWMMGKNNVKRSLAKYGKEFDIGIIEGVMGLYDGVDTLYSTYELAKVTKTPIILIINCSNIGSTVGAIVKGLKYYRSDVSIRGVIFNKIASETHYNYCRNAVEDVEVLGYVPFDKNLEIKSRHLGLVTVEDNREVQNLIRYASELVEKYVDLDKIYEMASDEDLEIDLPEDNESNGVKRKMAIAYDPAFSFYYQENLDILKNKYELEFFSPLNNEYVEDAEAIYIGGGYPELHLNELEKSTRTKKWLKNMSYAGVKIYAECGGLMYLSKNLIDENNKNHSMTGIFDIDIKTKDKLTIGYTELEAVKENFIVNKNNVVRGHEFHVSKPISVNEKEFVFKVRIGKGIINKLDGVKSNNTVASYSHLHFSNFQLRIVFEGHHHHHH", "soluble on expression in E. coli": "not soluble"},
      {"sequence": "MSLKRVMLKISGEALAGTNGYGIDFEVANRIAKEIKEIVDLGIEVGAVVGGGNIWRGRNGKGMDRTTADYMGMLATCINALALQDSLENMDVDTRVQTAIEMKQVAEPFIRRRAMRHLEKGRVVIFAGGTGNPYFSTDTTAALRAAEIEADVILLAKKVDGVYDKDPHKYDDAIKFDNLTYMEVLEKNLQVMDSTATSLCMDNNIPIIVFGLDVSGNIRKAVLGEKIGTIVSKEGHHHHHH", "soluble on expression in E. coli": "soluble"},
      {"sequence": "MSLKRVMTLADIALLANVSKSTASRALRNNPLINKNTRELVQEIALKHNFKVNATASNLRTQKTNTIAVVVMFDQKSGQAISDPFLMEILGTIADELTHFGYDMLLTTTKTATHDWYSYYYESKRADGLIIIGQGEHDQRIEALISTDLPFIVWGTEIHEKNYTTVGSDNRKGGYLAVSHLIEQGCQRIAFLGDINHTEVEQRWLGYQDAVAEAGLVVEDKLQIKTDFTSVDGYQSLRDHCLNDDVPIDGVFAVSDAIALGATKYLFEQNITIPKQVAVIGFDDISMSEYCSPSLSTIRQNTAAGGRLLVKLMLDKLNHLPVDSQLLNVEMIQRQSSEGHHHHHH", "soluble on expression in E. coli": "soluble"},
      {"sequence": "MSLKSSTEKKLAAARGTAELIVEDAKKEAETTKKEALLEAKEENHRLRTEIENELRGRRTETQKAENRLLQREENLDRKDTSLSKREATLERKEESISKRQQQIEEKESKLAEMIQAEQTELERISALSKEEAKSIILNQVEEELTHDTAIMVKESENRAKEESDKKAKNILSLAIQRCAADHVAETTVSVVTLPNDEMKGRIIGREGRNIRTLETLTGIDLIIDDTPEAVILSGFDPIRREIARIALEKLVQDGRIHPARIEEMVDKARKEVDEHIREVGEQATFEVGIHSIHPDLIKILGRLRYRTSYGQNVLNHSLEVSKLAGILAGELGEDVTLAKRAGLLHDIGKAIDHEIEGSHVEIGVELATKYKENDVVINSIASHHGDTEATSVIAVLVAAADALSAARPGARSETLENYIRRLEKLEEISESYDGVEKSYAIQAGREVRIIVEPDTIDDLSSYRLARDIRKRIEEELDYPGHIKVTVIRETRAVEYAKEGHHHHHH", "soluble on expression in E. coli": "not soluble"},
      {"sequence": "MSLKTLNIYLMRHGKVDAAPGLHGQTDLKVKEAEQQRIAMAWKTKGYDVAGIISSPLSRCHDLAQILAEQQLLPMTTEDDLQEMDFGDFDGMPFDLLTEHWKKLDAFWQSPAHHSLPNAESLSTFSQRVSRAWSQIINDINDNLLIVTHGGVIRIILAHVLGVDWRNPQWYSTLAIGNASVTHITITIDDQIYASVRSIGVPLVEEGHHHHHH", "soluble on expression in E. coli": "soluble"},
      {"sequence": "MSLKTMKFILACVLLLSPLLCQAQKNLFNKYNDMKGVSSVYISKAMMELNPNLFMKDLYIGKVAEHLNSVQVLSTHDNKVREEMAKDIRSLVQSSKYELLMKQKSTVSGSEVYVNRKGSKVKELIMVMNGASSLKFVYMEGDMTTDDIKKLMLYQSTSQNEGHHHHHH", "soluble on expression in E. coli": "not soluble"},
      {"sequence": "MSLKVLVTGGAGYVGTELVLKLAKDPSISKVVVFDNLSRENYNLFINSAQRIAKDKIQFEFGDLLDSRKIRKILADIDVVYHLAARVSTPFANADSHLYEQVNHWGTAELVYAIEEIKTVQKLIYVSSCSVYGSGKELIDENSVVNPKTIYGVSKMRGEEHVSRLGNKMNAVIIRLGNVYGYSSSMRFDAVINKFMFESHYKNRISIHGNGRQSRSFIHVDKAVDSLVKITSTDIPSGTYNLTERNLEIYDLIDQVKDLYPTLEFIFINQHLELREQKINPETKLLKYIPLQQTDFTAELAAFRDHFTFQTTSEGHHHHHH", "soluble on expression in E. coli": "soluble"}
    ]}
  ]
}
